To fix the notation:
B1: human glucose-regulated protein GRP78 (natural protein)
chain: not shown
notes: also called heat shock protein A5; HSPA5; source: Escherichia coli, recombinant; bought: Abcam
B2: Pep42, 13-mer cyclopeptide (peptide)
peptide: H-CTVALPGGYVRVC-NH2
modifications: disulfide 1-13
SMILES: CC(C)C[C@@H]1NC(=O)[C@H](C)NC(=O)[C@H](C(C)C)NC(=O)[C@H]([C@@H](C)O)NC(=O)[C@@H](N)CSSC[C@@H](C(N)=O)NC(=O)[C@H](C(C)C)NC(=O)[C@H](CCCNC(=N)N)NC(=O)[C@H](C(C)C)NC(=O)[C@H](Cc2ccc(O)cc2)NC(=O)CNC(=O)CNC(=O)[C@@H]2CCCN2C1=O
notes: source: synthetic peptide (Fmoc SPPS, disulphide cyclisation with DMSO, HPLC purified)

Bridge positions count the residues as written; N and C are the ends.

Assay [1] has as its target T1, S1 subunit (aa 14-685) of the spike protein of SARS-CoV-2 (SARS-CoV-2, UniProt P0DTC2 14-685).
T1 construct: also called soluble S1; wild-type S1 protein
Kind of assay: SPR. As to conditions: both partners purified.

Assay [2] addresses B1. In words: SPR. As to conditions: both partners purified.

For B1, in assay [1], the “KD in the presence of 12.5 uM LCP O” value came to 751 nM and the “KD in the presence of 12.5 uM LCP W” value is 137 nM.

On to B2, for which, in assay [2], the 50% inhibitory concentration (IC50) is 5900 nM and binding was characterised by a dissociation constant (Kd) of 3400 nM.

(Values after article PMC11497264, “SARS‐CoV‐2 Spike Protein‐Derived Cyclic Peptides as Modulators of Spike Interaction with GRP78” (Chembiochem, 2024).)
